# Reference: PMC2627783
# Residue numbers refer to the chain shown, from its start. In names and notes the source's numbering stands.
# B1: HscB(E97A,E100A,E104A) (natural protein)
# chain: MDYFTLFGLPARYQLDTQALSLRFQDLQRQYHPDKFASGSQAEQLAAVQQSATINQAWQTLRHPLMRAEYLLSLHGFDLASEQHTVRDTAFLMEQLALRAELDAIEQAKDEARLESFIKRVKKMFDTRHQLMVEQLDNETWDAAADTVRKLRFLDKLRSSAEQLEEKLLDF
# B2: HscB(L92A,M93A,F153A) (natural protein)
# chain: B1 chain with L92A, M93A, A97E, A100E, A104E, F153A
# Target: HscA (UniProt P0A6Z1)
# Sequence (P0A6Z1 whole entry): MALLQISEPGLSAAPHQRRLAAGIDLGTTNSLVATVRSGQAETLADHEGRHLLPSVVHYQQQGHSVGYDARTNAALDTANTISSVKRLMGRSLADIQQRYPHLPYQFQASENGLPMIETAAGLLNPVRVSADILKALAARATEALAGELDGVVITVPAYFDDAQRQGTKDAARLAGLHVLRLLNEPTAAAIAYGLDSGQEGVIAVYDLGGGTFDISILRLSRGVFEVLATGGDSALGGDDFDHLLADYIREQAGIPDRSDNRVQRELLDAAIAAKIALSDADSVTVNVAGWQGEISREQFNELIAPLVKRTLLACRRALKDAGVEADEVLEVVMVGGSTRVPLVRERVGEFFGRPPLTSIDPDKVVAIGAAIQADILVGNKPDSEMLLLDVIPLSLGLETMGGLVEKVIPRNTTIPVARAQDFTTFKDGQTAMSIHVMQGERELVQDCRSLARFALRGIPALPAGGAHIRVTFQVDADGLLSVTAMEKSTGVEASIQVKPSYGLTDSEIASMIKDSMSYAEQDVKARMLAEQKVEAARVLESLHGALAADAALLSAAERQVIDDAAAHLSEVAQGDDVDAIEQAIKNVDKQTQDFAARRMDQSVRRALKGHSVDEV
row,Binder,"HscA ATPase activity, 23 °C, in the absence of IscU: maximal stimulation [fold]"
1,B1,4.3
2,B2,3.8
